Test results: US20250388640A1 (SYNTHEKINE, published 2025)

Tests used:
[1] = target: T1, hIL-12 receptor signaling complex (hIL-12Rβ1 and hIL-12Rβ2) (human, UniProt P42701 24-662; Q99665 24-862); test: cell-based or functional assay
[2] = target: T1, hIL-12 receptor signaling complex …; test: cell-based or functional assay; remark: listed apart in the source

T1 sequence (Q99665 24-862, chain 2 of 2, other chains not shown): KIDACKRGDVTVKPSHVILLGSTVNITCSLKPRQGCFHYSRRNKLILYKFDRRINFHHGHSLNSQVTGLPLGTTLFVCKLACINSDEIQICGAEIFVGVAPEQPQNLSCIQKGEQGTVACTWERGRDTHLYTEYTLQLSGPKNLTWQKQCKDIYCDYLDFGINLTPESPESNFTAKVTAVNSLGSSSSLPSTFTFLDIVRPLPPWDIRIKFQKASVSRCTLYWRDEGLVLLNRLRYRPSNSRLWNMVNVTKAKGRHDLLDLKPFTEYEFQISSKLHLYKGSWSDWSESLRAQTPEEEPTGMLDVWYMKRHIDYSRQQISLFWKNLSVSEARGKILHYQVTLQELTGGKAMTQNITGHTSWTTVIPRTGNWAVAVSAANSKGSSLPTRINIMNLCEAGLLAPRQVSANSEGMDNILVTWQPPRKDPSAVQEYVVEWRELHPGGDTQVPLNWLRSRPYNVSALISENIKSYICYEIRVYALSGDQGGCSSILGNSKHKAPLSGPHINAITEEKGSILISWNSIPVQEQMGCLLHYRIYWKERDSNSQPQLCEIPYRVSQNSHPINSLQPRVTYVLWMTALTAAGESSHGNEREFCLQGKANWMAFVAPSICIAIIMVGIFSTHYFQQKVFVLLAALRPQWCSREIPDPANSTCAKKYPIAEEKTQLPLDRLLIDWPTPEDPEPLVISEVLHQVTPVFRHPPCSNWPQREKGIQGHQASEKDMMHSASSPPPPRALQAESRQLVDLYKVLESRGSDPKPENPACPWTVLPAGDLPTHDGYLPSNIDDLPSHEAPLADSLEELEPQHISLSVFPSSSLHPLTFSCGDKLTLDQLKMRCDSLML

Row | Binder | pSTAT4 [%+] EC50, CD8+ T Cells [1] | pSTAT4 [%+] EC50, CD56hi NK Cells [1] | pSTAT4 [%+] Emax, CD8+ T Cells [1] | pSTAT4 [%+] Emax, CD56hi NK Cells [1] | pSTAT4 [gMFI] EC50, CD8+ T Cells [2] | pSTAT4 [gMFI] EC50, CD56hi NK Cells [2] | pSTAT4 [gMFI] Emax, CD8+ T Cells [2] | pSTAT4 [gMFI] Emax, CD56hi NK Cells [2]
1 | human IL12 mutein, hIL-12p40 E81A, F82D with hIL-12p35-8X His (ligand) chain 1: IWELKKDVYVVELDWYPDAPGEMVVLTCDTPEEDGITWTLDQSSEVLGSGKTLTIQVKADGDAGQYTCHKGGEVLSHSLLLLHKKEDGIWSTDILKDQKEPKNKTFLRCEAKNYSGRFTCWWLTTISTDLTFSVKSSRGSSDPQGVTCGAATLSAERVRGDNKEYEYSVECQEDSACPAAEESLPIEVMVDAVHKLKYENYTSSFFIRDIIKPDPPKNLQLKPLKNSRQVEVSWEYPDTWSTPHSYFSLTFCVQVQGKSKREKKDRVFTDKTSATVICRKNASISVRAQDRYYSSSWSEWASVPCS chain 2: RNLPVATPDPGMFPCLHHSQNLLRAVSNMLQKARQTLEFYPCTSEEIDHEDITKDKTSTVEACLPLELTKNESCLNSRETSFITNGSCLASRKTSFMMALCLSSIYEDLKMYQVEFKTMNAKLLMDPKRQIFLDQNMLAVIDELMQALNFNSETVPQKSSLEEPDFYKTKIKLCILLHAFRIRAVTIDRVMSYLNASGSHHHHHHHH | 2.13 nM | 3.51 nM | 76.6 %+ | 84.1 %+ | 8.72 nM | 15.9 nM | 84000 gMFI | 23300 gMFI
2 | human IL12 mutein, hIL-12p40 E81A, F82F with hIL-12p35-8X His (ligand) chain 1: IWELKKDVYVVELDWYPDAPGEMVVLTCDTPEEDGITWTLDQSSEVLGSGKTLTIQVKAFGDAGQYTCHKGGEVLSHSLLLLHKKEDGIWSTDILKDQKEPKNKTFLRCEAKNYSGRFTCWWLTTISTDLTFSVKSSRGSSDPQGVTCGAATLSAERVRGDNKEYEYSVECQEDSACPAAEESLPIEVMVDAVHKLKYENYTSSFFIRDIIKPDPPKNLQLKPLKNSRQVEVSWEYPDTWSTPHSYFSLTFCVQVQGKSKREKKDRVFTDKTSATVICRKNASISVRAQDRYYSSSWSEWASVPCS chain 2: RNLPVATPDPGMFPCLHHSQNLLRAVSNMLQKARQTLEFYPCTSEEIDHEDITKDKTSTVEACLPLELTKNESCLNSRETSFITNGSCLASRKTSFMMALCLSSIYEDLKMYQVEFKTMNAKLLMDPKRQIFLDQNMLAVIDELMQALNFNSETVPQKSSLEEPDFYKTKIKLCILLHAFRIRAVTIDRVMSYLNASGSHHHHHHHH | 70 pM | 0.13 nM | 83.3 %+ | 93.5 %+ | 0.2 nM | 0.63 nM | 107000 gMFI | 36600 gMFI
3 | human IL12 mutein, hIL-12p40 E81A, F82H with hIL-12p35-8X His (ligand) chain 1: IWELKKDVYVVELDWYPDAPGEMVVLTCDTPEEDGITWTLDQSSEVLGSGKTLTIQVKAHGDAGQYTCHKGGEVLSHSLLLLHKKEDGIWSTDILKDQKEPKNKTFLRCEAKNYSGRFTCWWLTTISTDLTFSVKSSRGSSDPQGVTCGAATLSAERVRGDNKEYEYSVECQEDSACPAAEESLPIEVMVDAVHKLKYENYTSSFFIRDIIKPDPPKNLQLKPLKNSRQVEVSWEYPDTWSTPHSYFSLTFCVQVQGKSKREKKDRVFTDKTSATVICRKNASISVRAQDRYYSSSWSEWASVPCS chain 2: RNLPVATPDPGMFPCLHHSQNLLRAVSNMLQKARQTLEFYPCTSEEIDHEDITKDKTSTVEACLPLELTKNESCLNSRETSFITNGSCLASRKTSFMMALCLSSIYEDLKMYQVEFKTMNAKLLMDPKRQIFLDQNMLAVIDELMQALNFNSETVPQKSSLEEPDFYKTKIKLCILLHAFRIRAVTIDRVMSYLNASGSHHHHHHHH | 0.55 nM | 0.97 nM | 79.6 %+ | 89.7 %+ | 4.04 nM | 8.57 nM | 108000 gMFI | 33500 gMFI
4 | human IL12 mutein, hIL-12p40 E81A, F82G with hIL-12p35-8X His (ligand) chain 1: IWELKKDVYVVELDWYPDAPGEMVVLTCDTPEEDGITWTLDQSSEVLGSGKTLTIQVKAGGDAGQYTCHKGGEVLSHSLLLLHKKEDGIWSTDILKDQKEPKNKTFLRCEAKNYSGRFTCWWLTTISTDLTFSVKSSRGSSDPQGVTCGAATLSAERVRGDNKEYEYSVECQEDSACPAAEESLPIEVMVDAVHKLKYENYTSSFFIRDIIKPDPPKNLQLKPLKNSRQVEVSWEYPDTWSTPHSYFSLTFCVQVQGKSKREKKDRVFTDKTSATVICRKNASISVRAQDRYYSSSWSEWASVPCS chain 2: RNLPVATPDPGMFPCLHHSQNLLRAVSNMLQKARQTLEFYPCTSEEIDHEDITKDKTSTVEACLPLELTKNESCLNSRETSFITNGSCLASRKTSFMMALCLSSIYEDLKMYQVEFKTMNAKLLMDPKRQIFLDQNMLAVIDELMQALNFNSETVPQKSSLEEPDFYKTKIKLCILLHAFRIRAVTIDRVMSYLNASGSHHHHHHHH | 1 nM | 1.7 nM | 80.1 %+ | 88 %+ | 4.92 nM | 13.5 nM | 98200 gMFI | 30300 gMFI
5 | human IL12 mutein, hIL-12p40 E81A, F82L with hIL-12p35-8X His (ligand) chain 1: IWELKKDVYVVELDWYPDAPGEMVVLTCDTPEEDGITWTLDQSSEVLGSGKTLTIQVKALGDAGQYTCHKGGEVLSHSLLLLHKKEDGIWSTDILKDQKEPKNKTFLRCEAKNYSGRFTCWWLTTISTDLTFSVKSSRGSSDPQGVTCGAATLSAERVRGDNKEYEYSVECQEDSACPAAEESLPIEVMVDAVHKLKYENYTSSFFIRDIIKPDPPKNLQLKPLKNSRQVEVSWEYPDTWSTPHSYFSLTFCVQVQGKSKREKKDRVFTDKTSATVICRKNASISVRAQDRYYSSSWSEWASVPCS chain 2: RNLPVATPDPGMFPCLHHSQNLLRAVSNMLQKARQTLEFYPCTSEEIDHEDITKDKTSTVEACLPLELTKNESCLNSRETSFITNGSCLASRKTSFMMALCLSSIYEDLKMYQVEFKTMNAKLLMDPKRQIFLDQNMLAVIDELMQALNFNSETVPQKSSLEEPDFYKTKIKLCILLHAFRIRAVTIDRVMSYLNASGSHHHHHHHH | 0.71 nM | 1.08 nM | 80.2 %+ | 89.1 %+ | 3.12 nM | 7.21 nM | 100000 gMFI | 31100 gMFI
6 | human IL12 mutein, hIL-12p40 E81A, F82M with hIL-12p35-8X His (ligand) chain 1: IWELKKDVYVVELDWYPDAPGEMVVLTCDTPEEDGITWTLDQSSEVLGSGKTLTIQVKAMGDAGQYTCHKGGEVLSHSLLLLHKKEDGIWSTDILKDQKEPKNKTFLRCEAKNYSGRFTCWWLTTISTDLTFSVKSSRGSSDPQGVTCGAATLSAERVRGDNKEYEYSVECQEDSACPAAEESLPIEVMVDAVHKLKYENYTSSFFIRDIIKPDPPKNLQLKPLKNSRQVEVSWEYPDTWSTPHSYFSLTFCVQVQGKSKREKKDRVFTDKTSATVICRKNASISVRAQDRYYSSSWSEWASVPCS chain 2: RNLPVATPDPGMFPCLHHSQNLLRAVSNMLQKARQTLEFYPCTSEEIDHEDITKDKTSTVEACLPLELTKNESCLNSRETSFITNGSCLASRKTSFMMALCLSSIYEDLKMYQVEFKTMNAKLLMDPKRQIFLDQNMLAVIDELMQALNFNSETVPQKSSLEEPDFYKTKIKLCILLHAFRIRAVTIDRVMSYLNASGSHHHHHHHH | 0.52 nM | 0.74 nM | 82.2 %+ | 88.1 %+ | 2.64 nM | 4.26 nM | 109000 gMFI | 32200 gMFI
7 | human IL12 mutein, hIL-12p40 E81A, F82I with hIL-12p35-8X His (ligand) chain 1: IWELKKDVYVVELDWYPDAPGEMVVLTCDTPEEDGITWTLDQSSEVLGSGKTLTIQVKAIGDAGQYTCHKGGEVLSHSLLLLHKKEDGIWSTDILKDQKEPKNKTFLRCEAKNYSGRFTCWWLTTISTDLTFSVKSSRGSSDPQGVTCGAATLSAERVRGDNKEYEYSVECQEDSACPAAEESLPIEVMVDAVHKLKYENYTSSFFIRDIIKPDPPKNLQLKPLKNSRQVEVSWEYPDTWSTPHSYFSLTFCVQVQGKSKREKKDRVFTDKTSATVICRKNASISVRAQDRYYSSSWSEWASVPCS chain 2: RNLPVATPDPGMFPCLHHSQNLLRAVSNMLQKARQTLEFYPCTSEEIDHEDITKDKTSTVEACLPLELTKNESCLNSRETSFITNGSCLASRKTSFMMALCLSSIYEDLKMYQVEFKTMNAKLLMDPKRQIFLDQNMLAVIDELMQALNFNSETVPQKSSLEEPDFYKTKIKLCILLHAFRIRAVTIDRVMSYLNASGSHHHHHHHH | 0.67 nM | 0.9 nM | 79.2 %+ | 86 %+ | 5.72 nM | 10.4 nM | 106000 gMFI | 30500 gMFI
8 | human IL12 mutein, hIL-12p40 E81A, F82Q with hIL-12p35-8X His (ligand) chain 1: IWELKKDVYVVELDWYPDAPGEMVVLTCDTPEEDGITWTLDQSSEVLGSGKTLTIQVKAQGDAGQYTCHKGGEVLSHSLLLLHKKEDGIWSTDILKDQKEPKNKTFLRCEAKNYSGRFTCWWLTTISTDLTFSVKSSRGSSDPQGVTCGAATLSAERVRGDNKEYEYSVECQEDSACPAAEESLPIEVMVDAVHKLKYENYTSSFFIRDIIKPDPPKNLQLKPLKNSRQVEVSWEYPDTWSTPHSYFSLTFCVQVQGKSKREKKDRVFTDKTSATVICRKNASISVRAQDRYYSSSWSEWASVPCS chain 2: RNLPVATPDPGMFPCLHHSQNLLRAVSNMLQKARQTLEFYPCTSEEIDHEDITKDKTSTVEACLPLELTKNESCLNSRETSFITNGSCLASRKTSFMMALCLSSIYEDLKMYQVEFKTMNAKLLMDPKRQIFLDQNMLAVIDELMQALNFNSETVPQKSSLEEPDFYKTKIKLCILLHAFRIRAVTIDRVMSYLNASGSHHHHHHHH | 1.08 nM | 2.05 nM | 78.5 %+ | 85.1 %+ | 4.92 nM | 9.87 nM | 91400 gMFI | 25900 gMFI
